Experiments:
TsaM = biological target: T1, TsaM (Comamonas testosteroni, UniProt P94679); assay: LC-MS product formation and NADH consumption (A340); type: biochemical; conditions: with reductase VanB, Fe(II), 30 °C
T1 construct: gene tsaM1; pET-28a(+)-TEV-tsaM, E. coli C41(DE3), purified as TsaC; trimer
T1 sequence (P94679 1-347): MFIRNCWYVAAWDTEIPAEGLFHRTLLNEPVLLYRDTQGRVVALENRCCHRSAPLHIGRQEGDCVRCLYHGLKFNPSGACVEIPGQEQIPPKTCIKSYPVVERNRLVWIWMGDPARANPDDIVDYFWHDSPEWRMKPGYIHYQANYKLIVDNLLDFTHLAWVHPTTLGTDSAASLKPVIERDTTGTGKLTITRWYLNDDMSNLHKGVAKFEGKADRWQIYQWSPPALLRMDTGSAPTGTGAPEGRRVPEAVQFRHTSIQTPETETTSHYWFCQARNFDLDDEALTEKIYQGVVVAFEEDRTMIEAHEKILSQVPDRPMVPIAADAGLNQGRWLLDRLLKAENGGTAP

TsaC [1] = biological target: T2, TsaC (Comamonas testosteroni, UniProt P94681); assay: differential scanning fluorimetry; type: binding; conditions: 10 μM enzyme; NADH alone
T2 construct: gene tsaC1; N-terminal His6 tag with TEV site (residues -20 to -1, kept), codon-optimized, pET-28a(+)-TEV, E. coli C41(DE3); native residues 1-252; homotetramer

TsaC [2] = biological target: T3, TsaC (Comamonas testosteroni, UniProt P94681, T143Q/G149N); assay: GC-MS turnover; type: biochemical; conditions: 5 mM NAD+, 10 μM enzyme, 30 °C, 2 h
T3 construct: gene tsaC1; N-terminal His6 tag with TEV site (residues -20 to -1, kept), codon-optimized, pET-28a(+)-TEV, E. coli C41(DE3); native residues 1-252; homotetramer
T3 sequence (P94681 whole entry T143Q/G149N, the tested form may be a part): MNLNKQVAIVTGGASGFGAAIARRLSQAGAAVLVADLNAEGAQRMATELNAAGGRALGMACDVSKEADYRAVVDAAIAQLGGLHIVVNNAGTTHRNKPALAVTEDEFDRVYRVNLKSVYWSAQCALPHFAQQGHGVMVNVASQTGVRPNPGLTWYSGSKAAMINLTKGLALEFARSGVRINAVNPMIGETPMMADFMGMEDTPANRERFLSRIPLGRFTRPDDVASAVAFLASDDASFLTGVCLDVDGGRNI

TsaC [3] = biological target: T4, TsaC (Comamonas testosteroni, UniProt P94681, G149N); assay: GC-MS turnover; type: biochemical; conditions: 5 mM NAD+, 10 μM enzyme, 30 °C, 2 h
T4 construct: gene tsaC1; N-terminal His6 tag with TEV site (residues -20 to -1, kept), codon-optimized, pET-28a(+)-TEV, E. coli C41(DE3); native residues 1-252; homotetramer
T4 sequence (P94681 whole entry G149N, the tested form may be a part): as the sequence (P94681 whole entry T143Q/G149N, the tested form may be a part) above, with Q143T counted along it

[4] = substrate: O=Cc1ccc(C(=O)O)cc1; assay: LC-MS steady-state kinetics; type: biochemical, Comamonas testosteroni; conditions: 2 mM NAD+, 30 °C, aldehyde hydrate proposed as the oxidized species
Source text: (§1) LC-MS steady-state kinetics on TsaC

[5] = substrate: O=C(O)c1ccc(CO)cc1; assay: LC-MS steady-state kinetics; type: biochemical, Comamonas testosteroni; conditions: 2 mM NAD+, 30 °C
Source text: as §1

[6] = substrate: O=S(=O)(O)c1ccc(CO)cc1; assay: LC-MS steady-state kinetics; type: biochemical, Comamonas testosteroni; conditions: 2 mM NAD+, 30 °C
Source text: as §1

[7] = substrate: O=Cc1ccc(S(=O)(=O)O)cc1; assay: LC-MS steady-state kinetics; type: biochemical, Comamonas testosteroni; conditions: 2 mM NAD+, 30 °C, aldehyde hydrate proposed as the oxidized species
Source text: as §1

[8] = biological target: the molecule itself; assay: crystal structure; hanging-drop vapor diffusion, 10 to 20 mg/ml protein with 2 mM NAD+, 0.2 M KCl, 20% PEG 3350, 10% glycerol, 293 K; two chains in the asymmetric unit, tetramer with two symmetry-related molecules; 2.18 A
[9] = biological target: the molecule itself; assay: SEC-MALS; 15 ul of 90 uM protein, AdvanceBio 300A column, 50 mM Hepes pH 8.2, 200 mM NaCl, 5% glycerol, with either NAD+ or NADH, room temperature; about 0.3 uM at the apex of the largest peak
[10] = biological target: the molecule itself; assay: SEC; HiPrep 16/60 Sephacryl S200-HR, 50 mM Hepes pH 8.0, 200 mM NaCl, 5% glycerol
[11] = substrate: O=Cc1ccc(C(=O)O)cc1; assay: LC-MS steady-state kinetics; type: biochemical, Comamonas testosteroni; conditions: 2 mM NAD+, 30 °C
Source text: (§2) LC-MS steady-state kinetics on TsaD

[12] = substrate: O=Cc1ccc(S(=O)(=O)O)cc1; assay: LC-MS steady-state kinetics; type: biochemical, Comamonas testosteroni; conditions: 2 mM NAD+, 30 °C
Source text: as §2

[13] = biological target: the molecule itself; assay: SEC; gel filtration in the purification of TsaM, purified as described for TsaC; lysis buffer 50 mM Tris-HCl pH 7.2, 250 mM NaCl

Question: For `Cc1ccc(C(=O)O)cc1` [4-methylbenzoate], which “LC-MS product formation and NADH consumption (A340)” value (TsaM) is on record?
Answer: TsaM and VanB consume more 4-methylbenzenesulfonate than 4-methylbenzoate

Question: With `Cc1ccc(S(=O)(=O)O)cc1` [4-methylbenzenesulfonate] as the molecule, how does the “LC-MS product formation and NADH consumption (A340)” value (TsaM) read?
Answer: more NADH is consumed in assays that contain 4-methylbenzenesulfonate rather than 4-methylbenzoate

Question: For `NC(=O)C1=CN([C@@H]2O[C@H](COP(=O)(O)OP(=O)(O)OC[C@H]3O[C@@H](n4cnc5c(N)ncnc54)[C@H](O)[C@@H]3O)[C@@H](O)[C@H]2O)C=CC1` [NADH], which ΔTm (TsaC [1]) is on record?
Answer: 12.4 °C

Question: `C[C@H](O)[C@@H](C)O` [meso-2,3-butanediol] was tested. Which GC-MS turnover (TsaC [2]) did it give?
Answer: T143Q/G149N variants of TsaC show a significantly improved ability to transform meso-2,3-butanediol into 3-hydroxy-2-butanone

Question: And the GC-MS turnover (TsaC [3])?
Answer: both the G149N and T143Q/G149N variants of TsaC show a significantly improved ability

B1: TsaC (wild type), short-chain dehydrogenase/reductase of the TsaMBCD pathway (enzyme, Comamonas testosteroni, UniProt P94681 1-252, looked up)
chain: MNLNKQVAIVTGGASGFGAAIARRLSQAGAAVLVADLNAEGAQRMATELNAAGGRALGMACDVSKEADYRAVVDAAIAQLGGLHIVVNNAGTTHRNKPALAVTEDEFDRVYRVNLKSVYWSAQCALPHFAQQGHGVMVNVASTTGVRPGPGLTWYSGSKAAMINLTKGLALEFARSGVRINAVNPMIGETPMMADFMGMEDTPANRERFLSRIPLGRFTRPDDVASAVAFLASDDASFLTGVCLDVDGGRNI
notes: TsaC, Comamonas testosteroni, codon-optimized synthetic gene in pET-28a(+)-TEV; native residues 1 (initial methionine) to 252 (the four C-terminal residues are 249 to 252); the His6 tag and TEV protease cleavage site are numbered -20 to -1; The tag and TEV site (residues -20 to -1) are present in the crystallised protein but disordered; no cleavage of the tag is described; also called wild-type …
Question: For B1, which Km [4] is on record?
Answer: 23 ± 4.7 µM

Question: And the Vmax [4]?
Answer: 13 µM/min

Question: And the kcat [4]?
Answer: 0.112 ± 0.00667 s⁻¹

Question: And the kcat/Km [4]?
Answer: 4800 ± 1000 M⁻¹ s⁻¹

Question: And the Km [5]?
Answer: 18 ± 2.8 µM

Question: What about the Vmax [5] of the same molecule?
Answer: 12 µM/min

Question: What about the kcat [5] of the same molecule?
Answer: 0.0983 ± 0.00367 s⁻¹

Question: And the kcat/Km [5]?
Answer: 5400 ± 870 M⁻¹ s⁻¹

Question: And the Km [6]?
Answer: 13 ± 2.0 µM

Question: And the Vmax [6]?
Answer: 12 µM/min

Question: What about the kcat [6] of the same molecule?
Answer: 0.1 ± 0.004 s⁻¹

Question: And the kcat/Km [6]?
Answer: 7900 ± 1300 M⁻¹ s⁻¹

Question: What about the Km [7] of the same molecule?
Answer: 20 ± 3.5 µM

Question: What about the Vmax [7] of the same molecule?
Answer: 15 µM/min

Question: What about the kcat [7] of the same molecule?
Answer: 0.125 ± 0.00583 s⁻¹

Question: And the kcat/Km [7]?
Answer: 6200 ± 1100 M⁻¹ s⁻¹

Question: And the “stoichiometry N” value [8]?
Answer: 4

B2: Y155F TsaC variant (enzyme, Comamonas testosteroni, UniProt P94681 1-252, looked up)
chain: MNLNKQVAIVTGGASGFGAAIARRLSQAGAAVLVADLNAEGAQRMATELNAAGGRALGMACDVSKEADYRAVVDAAIAQLGGLHIVVNNAGTTHRNKPALAVTEDEFDRVYRVNLKSVYWSAQCALPHFAQQGHGVMVNVASTTGVRPGPGLTWFSGSKAAMINLTKGLALEFARSGVRINAVNPMIGETPMMADFMGMEDTPANRERFLSRIPLGRFTRPDDVASAVAFLASDDASFLTGVCLDVDGGRNI
notes: TsaC, Comamonas testosteroni, made by site-directed mutagenesis of pET-28a(+)-TEV-tsaC; same limits as the wild type (native residues 1 to 252); Expressed and purified as the wild type; source: E. coli C41(DE3), purified (HisTrap HP, Sephacryl S200-HR gel filtration)
Question: How did the “stoichiometry N” value [9] turn out when B2 was run?
Answer: 4

B3: TsaD (wild type), aldehyde dehydrogenase of the TsaMBCD pathway (enzyme, Comamonas testosteroni, UniProt P94682 1-476, looked up)
chain: MSTVLYRCPELLIGGEWRPGRHEQRLVVRNPATGEPLDELRLASADDLQLALQTTQQAFEHWRQVPAHERCARLERGVARLRENTERIAHLLTLEQGKTLAEARMECAMAADLIKWYAEEARRVYGRVIPARLPNSRMEVFKFPVGPVAAFSPWNFPLVLSARKLGGAIAAGCSIVLKAAEETPASVAAMVDCLNQELPPGVVQLLYGVPAEVSQALIASPVVRKVTFTGSVPVGRHLAELSARHLKRITLELGGHAPVIVCGDADIARTVNLMVQHKFRNAGQACLAPTRFFVDRRIYGDFVDAFGATQALRVGAGMAAETQMGPVASARRQAAVQDLIARSVAAGARPVASAVPEAGYFVAPTLLADVPLDAPVMSEEPFGPVACAVPFDSLDQAIAQANHNPYGLAGYLFTDSAKAILAVSERLEVGSLAVNGMGVSVPEAPFGGVKDSGYGSESGTEGMEAFLDTKFMHYVA
notes: TsaD, Comamonas testosteroni, codon-optimized synthetic gene in pMCSG9; Expression followed the TsaC protocol with ampicillin; also called untagged TsaD; source: E. coli, purified (MBPTrap, TEV cleavage, HisTrap HP flow-through, Sephacryl S200-HR gel filtration); not shown: MBP, N-terminal, cleaved; His6, N-terminal, cleaved
Question: Which results are given for B3?
Answer: stoichiometry N [10]: 2; Km [11]: 21 ± 6.9 µM; Vmax [11]: 13 µM/min; kcat [11]: 0.105 ± 0.00983 s⁻¹; kcat/Km [11]: 5000 ± 1700 M⁻¹ s⁻¹; Km [12]: 16 ± 2.5 µM; Vmax [12]: 13 µM/min; kcat [12]: 0.112 ± 0.00517 s⁻¹; kcat/Km [12]: 6900 ± 1100 M⁻¹ s⁻¹

B4: TsaM (wild type), Rieske oxygenase of the TsaMBCD pathway (enzyme, Comamonas testosteroni, UniProt P94679 1-347, looked up)
chain: MFIRNCWYVAAWDTEIPAEGLFHRTLLNEPVLLYRDTQGRVVALENRCCHRSAPLHIGRQEGDCVRCLYHGLKFNPSGACVEIPGQEQIPPKTCIKSYPVVERNRLVWIWMGDPARANPDDIVDYFWHDSPEWRMKPGYIHYQANYKLIVDNLLDFTHLAWVHPTTLGTDSAASLKPVIERDTTGTGKLTITRWYLNDDMSNLHKGVAKFEGKADRWQIYQWSPPALLRMDTGSAPTGTGAPEGRRVPEAVQFRHTSIQTPETETTSHYWFCQARNFDLDDEALTEKIYQGVVVAFEEDRTMIEAHEKILSQVPDRPMVPIAADAGLNQGRWLLDRLLKAENGGTAP
notes: TsaM, Comamonas testosteroni, in pET-28a(+)-TEV-tsaM; also called wild-type TsaM; source: E. coli C41(DE3), purified as described for TsaC (gel filtration)
Question: For B4, which “stoichiometry N” value [13] is on record?
Answer: 3
